Measured values taken from publication PMC10967716.

Molecular target: α-Methylacyl-CoA racemase from Mycobacterium tuberculosis, wild-type (M. tuberculosis) (UniProt O06543)
Assay: SEC

## α-Methylacyl-CoA racemase from Mycobacterium tuberculosis, wild-type (from UniProt O06543 1-360) (enzyme)
  stoichiometry N: 2
